Laboratory results reported in US20220380473A1, “ANTI-GAL3 ANTIBODIES AND USES THEREOF” (TrueBinding, Inc., priority 2019, published 2022).

Tests used:
[1] = system: human dendritic cells (DC), M1 and M2 macrophage cells; assay: Flow cytometry staining of human DC, M1 and M2 macrophages; type: cell-based; conditions: 10 μg/ml
Protocol: First Human CD14 monocytes were isolated from peripheral blood mononuclear cells (PBMC) with a CD14 cell positive selection kit (Miltenyi, Auburn, Calif.) and differentiated into dendritic cells (DC), or into M1 macrophages, or into M2 macrophages in the presence of GM-CSF plus IL-4, or GM-CSF, or M-CSF (Rocky Hill, N.J.), respectively. Then flow cytometry analysis was performed to detect Gal3 expression on human dendritic cells (DC), M1 and M2 macrophage cells. In details, 100,000 DC, M1 or M2 cells were incubated with 100 μl 10% FBS HBSS solution that contains with control mIgG-biotin (BioLegend) or IMT001-biotin at 10 μg/ml on ice for 20 minutes. Then cells were washed and incubated with PE-streptavidin (BioLegend) at 1:1000 on ice for 20 min. After spinning, live/dead cells were stained with Violet dead cell stain kit (Life Technologies). Stained cells were subjected to flow analysis.

hGal3 peptides = assay: ELISA of antibody binding to hGal3 peptides (Example 14); set-up: species or system human; conditions: 0.1 ug/ml antibody
Protocol: A library of 20 amino acid peptides each representing a certain regions of hGal3 (SEQ ID NO: 1) was produced. At least 2 ug/ml of the produced hGal3 peptide: peptide 1 (SEQ ID NO: 3), 5 (SEQ ID NO: 7), 6 (SEQ ID NO: 8), 8 (SEQ ID NO: 10), or 23 (SEQ ID NO: 25) in 50 ul of PBS was added to the wells of a 96-well ELISA plate (Thermo Fisher, 44-2404-21). As a positive control, 0.1 ug/ml of full-length human Galectin-3 protein (Acro Biosystems, GA3-H5129) in 100 ul of PBS was added to the wells of the ELISA plate. After incubating the plate at 4° C. overnight, the plate was washed three times with 300 ul of PBST per well. The plate was then blocked for an hour with 200 ul of 2% BSA in PBST per well at room temperature with gentle rocking. Thereafter, the 2% BSA in PBST was removed and 100 ul of 0.1 ug/ml of antibody in 2% BSA in PBST was added to the wells (FIG. 17A-B). As for negative control group, the antibodies were applied without the hGal3 peptides or the hGal3 protein.
The plate was incubated for an hour at room temperature with gentle rocking and then washed three times with 300 μl of PBST per well. […] The reaction was stopped with 50 ul of 1M HCl (VWR) per well and the plate was read using a plate reader (Molecular Devices) at absorbance of 450 nm.

[2] = system: mouse unilateral ureteral obstruction (UUO) model of kidney fibrosis; assay: Mouse UUO model of kidney fibrosis (Example 32); type: in vivo; conditions: administered one day after UUO surgery
Description: To further evaluate the ability of GAL3-targeted antibodies with the ability to block TIM3-GAL3 assembly to impact fibrosis, we evaluated the impact of humanized IMT001-4 and IMT006-1 in the mouse unilateral ureteral obstruction (UUO) model of kidney fibrosis. Briefly, 8-week-old C57BL/6J male mice were divided into sham, UUO with HuIgG4−, and UUO with HuIMT001-4, HuIMT006-1, and UUO with metformin-treatment. HuIgG4, HuIMT001-4 and HuIMT006-1 were each administered by intraperitoneal route at 10 mg/kg Q2Dx3 whereas metformin (500 mg/kg/day) was administered to mice dissolved in drinking water. In some settings therapeutic antibodies or metformin was administered 1 day before UUO, whereas in other experiments therapeutic antibodies or metformin was administered 1 day after UUO. After 7 days of UUO surgery, mice were sacrificed, left kidney was harvested and fixed with 4% paraformaldehyde for immunohistochemistry (IHC) and blood was collected in Heparin-EDTA tubes for blood biochemistry analysis. Levels of plasma mouse TIM-1/KIM-1/HAVCR were measured using a commercial ELISA kit (Catalog #MKM100; R&D Systems, Minneapolis, Minn.) according to the protocol provided by the manufacturer. Levels of plasma mouse Lipocalin-2/NGAL were measured using a commercial ELISA kit (Catalog #DY1857; R&D Systems, Minneapolis, Minn.) according to the protocol provided by the manufacturer. 5 um sections of fixed kidney specimens were produced and processed for picosirius red staining as described for liver specimens above.
To evaluate the robustness of TIM3-GAL3 blocking antibodies in reducing kidney fibrosis, the ability of mIMT001 to inhibit fibrosis when administered one day after UUO surgery was evaluated. Following UUO surgery and treatment with isotype or control antibodies, kidney specimens were harvested and stained by IHC for Collagen 1a1 (Col1a1), a marker of kidney fibrosis.

[3] = system: mouse bleomycin-induced lung fibrosis model; assay: Mouse bleomycin-induced lung fibrosis model; type: in vivo
Protocol: Fibrosis of the lung represents an additional significant form of fibrotic disease with significant health impacts in humans. To evaluate if the anti-fibrotic effects of GAL3-TIM3 blockade extend into the setting of lung fibrosis, a mouse bleomycin-induced lung fibrosis model was evaluated for sensitivity to mIMT001. Briefly, C57Blck/6 male mice were injected intra-tracheally with 30 ug of Bleomycin Sulfate (MP biomedicals, cat #190306) reconstituted in 50 ul of PBS. Mice were treated on day 18, 20, 22, and 24 with mIgG2b isotype control, anti-GAL3 antibody (mIMT001) (10 mg/kg) by tail vein injection, or small molecule TD139 (Med Chem Express, cat #HY-19940) at 10 uM in 50 ul of Captisol (Med Chem Express, cat #HY-17031) injected intra-tracheally. Mice were sacrificed on day 27 and lungs were surgically dissected and fixed in 4% paraformaldehyde for 24 hours, exchanged into 70% ethanol, and embedded in paraffin. Lung fibrosis in fixed specimens was evaluated by Masson's trichrome staining kit (26367) from Electron Microscopy Sciences (Hatfield, Pa.). […] lung sections were affixed to glass slides, After deparaffinization, rehydration in serial ethanol baths. Staining was performed by incubating in Bouin's fixative for 1 h at 56 degree, staining with Briebrich Scarlet/acid fuchsin, Phosphomolybdic Acid-Phosphotungstic Acid and Aniline Blue, then differentiated in acetic acid, prior to their dehydration, clearing and mounting.

B1: IMT001: anti-Gal3 monoclonal antibody (Immutics); printed as mIMT001 (IMT001), murine (antibody, V domains shown)
VH: QIQLVQSGPELKKPGETVKISCKASGYTFTNYGMNWVKQAPGKGLKWMGWINTNTGEPTYVEEFKGRFAFSLETSASTAYLQINNLKNEDTATYFCAPYDNFFAYWGQGTLVTVSA
VL: DIVITQDELSNPVTSGESVSISCRSSKSLLYKDGKTYLNWFLQRPGQSPQLLIYLMSTHASGVSDRFSGSGSGTDFTLEISRVKAEDVGVYYCQQLVDYPLTFGAGTKLELK
B1 was tested, and the “staining of dendritic cells and M1 macrophages” value [1] was “could not be stained”, the “mean fluorescence intensity (MFI) of stained M2 cells vs isotype control” value ([1]; human M2 macrophages) was “much higher” and the hGal3 peptides bound (hGal3 peptides) was 5 (SEQ ID NO: 7), 6 (SEQ ID NO: 8), and 8 (SEQ ID NO: 10). The “Col1a1 staining, image quantification” value [2] was 9.17 intensity units, the “Col1a1 staining, qualitative” value [2] was “reduced levels of Col1a1 staining” and the “overall reduction in Col1a1” value [2] was 48%. The Ashcroft score ([3]; 10 mg/kg tail vein day 18, 20, 22, 24, isotype 5.74) was 4.09, the “decrement in fibrotic injury” value ([3]; vs isotype control) was 29% and the “lung fibrosis, Masson's trichrome” value ([3]; vs isotype control) was “substantially reduced”.
